Measurements published in PMC7213981, “Enhancer architecture sensitizes cell specific responses to Notch gene dose via a bind and discard mechanism”.

Legend:
[1] = target: T1, Su(H);NICD;Mastermind (Mam) (Drosophila melanogaster;Drosophila …, UniProt P28159;P07207;P21519 98-523;1763-2412;87-307, ||); assay: EMSA; both probes in the same reaction; 1 uM NICD/Mam; additive, not cooperative, less preferred than 1xSPS; Native PAGE EMSA, LICOR Odyssey CLx imaging; equal amounts of both probes in one reaction; buffer, salt, pH and temperature not stated (as in Uhl 2010, 2016); conditions: protein: recombinant;recombinant;recombinant; copies: 1;1;1; label: 5' IRDye-700 on the complementary strand (primer S25)
T1 sequence (P28159 98-523, chain 1 of 3): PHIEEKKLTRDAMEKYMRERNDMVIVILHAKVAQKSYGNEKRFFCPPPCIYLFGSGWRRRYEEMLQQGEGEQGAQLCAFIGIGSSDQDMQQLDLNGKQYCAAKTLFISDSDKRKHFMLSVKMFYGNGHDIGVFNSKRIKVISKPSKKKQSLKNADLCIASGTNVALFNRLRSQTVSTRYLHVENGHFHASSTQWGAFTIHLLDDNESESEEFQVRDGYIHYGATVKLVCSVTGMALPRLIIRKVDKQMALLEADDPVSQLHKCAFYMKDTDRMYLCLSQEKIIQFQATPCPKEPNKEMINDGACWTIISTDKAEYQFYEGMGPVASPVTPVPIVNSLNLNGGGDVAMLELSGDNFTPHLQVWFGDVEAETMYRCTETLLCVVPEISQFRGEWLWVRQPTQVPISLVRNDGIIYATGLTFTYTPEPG
T1 sequence (P07207 1763-2412, chain 2 of 3): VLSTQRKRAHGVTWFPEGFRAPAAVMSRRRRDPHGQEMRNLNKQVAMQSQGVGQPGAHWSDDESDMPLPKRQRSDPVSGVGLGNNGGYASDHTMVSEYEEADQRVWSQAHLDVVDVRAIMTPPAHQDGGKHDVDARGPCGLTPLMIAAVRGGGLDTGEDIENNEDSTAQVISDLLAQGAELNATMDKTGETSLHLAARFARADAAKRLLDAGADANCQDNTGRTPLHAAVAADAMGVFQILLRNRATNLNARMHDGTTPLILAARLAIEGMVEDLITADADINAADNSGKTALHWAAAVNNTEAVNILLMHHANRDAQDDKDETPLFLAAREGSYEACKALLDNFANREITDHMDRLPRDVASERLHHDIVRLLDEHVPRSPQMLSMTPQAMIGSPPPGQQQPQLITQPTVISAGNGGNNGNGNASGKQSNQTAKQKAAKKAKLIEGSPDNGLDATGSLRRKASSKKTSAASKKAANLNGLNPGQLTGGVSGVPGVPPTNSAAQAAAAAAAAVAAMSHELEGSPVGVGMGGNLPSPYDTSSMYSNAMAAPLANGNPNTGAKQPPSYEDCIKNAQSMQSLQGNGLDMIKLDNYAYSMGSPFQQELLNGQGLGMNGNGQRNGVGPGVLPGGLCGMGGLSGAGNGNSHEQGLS
T1 sequence (P21519 87-307, chain 3 of 3): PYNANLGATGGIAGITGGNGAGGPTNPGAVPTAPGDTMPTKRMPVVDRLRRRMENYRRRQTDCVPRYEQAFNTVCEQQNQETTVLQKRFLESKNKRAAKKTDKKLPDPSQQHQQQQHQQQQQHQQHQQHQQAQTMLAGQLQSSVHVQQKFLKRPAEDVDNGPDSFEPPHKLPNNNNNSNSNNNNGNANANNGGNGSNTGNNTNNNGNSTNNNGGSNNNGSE

[2] = target: T2, RBPJ (CSL);N1ICD;MAML1 (mouse;mouse;human, UniProt P31266;Q01705;Q92585 53-474;1744-2113;1-280, ||); assay: EMSA; both probes in the same reaction; 1 uM NICD/MAML; additive, not cooperative, less preferred than 1xSPS; Native PAGE EMSA, LICOR Odyssey CLx imaging; equal amounts of both probes in one reaction; buffer, salt, pH and temperature not stated (as in Uhl 2010, 2016); conditions: protein: recombinant;recombinant;recombinant; copies: 1;1;1; label: 5' IRDye-700 on the complementary strand (primer S25)
T2 sequence (P31266 53-474, chain 1 of 3): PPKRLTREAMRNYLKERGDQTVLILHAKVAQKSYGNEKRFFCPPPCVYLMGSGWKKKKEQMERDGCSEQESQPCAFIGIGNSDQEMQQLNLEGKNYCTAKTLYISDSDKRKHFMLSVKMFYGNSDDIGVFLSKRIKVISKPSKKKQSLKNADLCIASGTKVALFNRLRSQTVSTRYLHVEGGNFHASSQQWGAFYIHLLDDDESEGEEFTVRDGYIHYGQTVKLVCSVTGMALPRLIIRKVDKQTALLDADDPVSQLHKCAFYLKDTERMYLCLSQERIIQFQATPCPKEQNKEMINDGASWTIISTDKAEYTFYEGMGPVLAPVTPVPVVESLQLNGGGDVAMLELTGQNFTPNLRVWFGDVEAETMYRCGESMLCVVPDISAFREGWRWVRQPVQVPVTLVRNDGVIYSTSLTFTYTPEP
T2 sequence (Q01705 1744-2113, chain 2 of 3): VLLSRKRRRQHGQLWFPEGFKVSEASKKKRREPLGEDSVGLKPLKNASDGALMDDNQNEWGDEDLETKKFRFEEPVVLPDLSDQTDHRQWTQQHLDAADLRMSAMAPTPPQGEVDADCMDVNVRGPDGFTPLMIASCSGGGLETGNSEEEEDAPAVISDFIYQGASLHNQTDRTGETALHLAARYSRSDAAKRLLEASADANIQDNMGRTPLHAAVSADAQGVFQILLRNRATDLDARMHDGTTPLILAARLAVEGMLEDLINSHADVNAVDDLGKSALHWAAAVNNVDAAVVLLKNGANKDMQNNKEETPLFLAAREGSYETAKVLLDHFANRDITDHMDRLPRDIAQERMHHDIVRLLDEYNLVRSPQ
T2 sequence (Q92585 1-280, chain 3 of 3): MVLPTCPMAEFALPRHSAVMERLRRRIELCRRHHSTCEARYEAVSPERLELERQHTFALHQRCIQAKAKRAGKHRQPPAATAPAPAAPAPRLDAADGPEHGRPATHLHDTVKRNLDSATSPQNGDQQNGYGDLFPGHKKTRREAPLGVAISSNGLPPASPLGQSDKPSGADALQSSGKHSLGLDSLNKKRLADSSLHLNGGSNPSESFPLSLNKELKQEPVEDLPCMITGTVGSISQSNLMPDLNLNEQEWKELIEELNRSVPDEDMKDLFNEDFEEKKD

[3] = target: T3, RBPJ (CSL) (mouse, UniProt P31266 53-474); assay: EMSA; both probes in the same reaction; RBPJ 10-320 nM, no co-activators; additive, slightly higher affinity than 1xSPS; Native PAGE EMSA, LICOR Odyssey CLx imaging; equal amounts of both probes in one reaction; buffer, salt, pH and temperature not stated (as in Uhl 2010, 2016); conditions: protein: recombinant; label: 5' IRDye-700 on the complementary strand (primer S25)
T3 sequence (P31266 53-474): as the sequence (P31266 53-474, chain 1 of 3) above

[4] = target: T4, Su(H) (Drosophila melanogaster, UniProt P28159 98-523); assay: EMSA; both probes in the same reaction; Su(H) 10-320 nM, no co-activators; additive, slightly higher affinity than 1xSPS; Native PAGE EMSA, LICOR Odyssey CLx imaging; equal amounts of both probes in one reaction; buffer, salt, pH and temperature not stated (as in Uhl 2010, 2016); conditions: protein: recombinant; label: 5' IRDye-700 on the complementary strand (primer S25)
T4 sequence (P28159 98-523): as the sequence (P28159 98-523, chain 1 of 3) above

[5] = target: T2, RBPJ (CSL);N1ICD;MAML1; assay: EMSA; both probes in the same reaction; 1 uM NICD/MAML; cooperative, both sites preferentially filled; Native PAGE EMSA, LICOR Odyssey CLx imaging; equal amounts of both probes in one reaction; buffer, salt, pH and temperature not stated (as in Uhl 2010, 2016); conditions: protein: recombinant;recombinant;recombinant; copies: 1;1;1; label: 5' IRDye-800 on the complementary strand (primer S25)
[6] = target: T1, Su(H);NICD;Mastermind (Mam); assay: EMSA; both probes in the same reaction; 1 uM NICD/Mam; cooperative, less 2NCM complex than the mouse proteins; Native PAGE EMSA, LICOR Odyssey CLx imaging; equal amounts of both probes in one reaction; buffer, salt, pH and temperature not stated (as in Uhl 2010, 2016); conditions: protein: recombinant;recombinant;recombinant; copies: 1;1;1; label: 5' IRDye-800 on the complementary strand (primer S25)
[7] = target: T3, RBPJ (CSL); assay: EMSA; both probes in the same reaction; RBPJ 10-320 nM, no co-activators; additive, slightly lower affinity than 2xCSL; Native PAGE EMSA, LICOR Odyssey CLx imaging; equal amounts of both probes in one reaction; buffer, salt, pH and temperature not stated (as in Uhl 2010, 2016); conditions: protein: recombinant; label: 5' IRDye-800 on the complementary strand (primer S25)
[8] = target: T4, Su(H); assay: EMSA; both probes in the same reaction; Su(H) 10-320 nM, no co-activators; additive, slightly lower affinity than 2xCSL; Native PAGE EMSA, LICOR Odyssey CLx imaging; equal amounts of both probes in one reaction; buffer, salt, pH and temperature not stated (as in Uhl 2010, 2016); conditions: protein: recombinant; label: 5' IRDye-800 on the complementary strand (primer S25)

Measured: binding result

B1: 2xCSL EMSA probe (dsDNA)
DNA 1: CGAACGTGGGAAACCTAGGCTAGAGGCACCGTGGGAAACTAGTGCGGGCGTGGCT
DNA 2: AGCCACGCCCGCACTAGTTTCCCACGGTGCCTCTAGCCTAGGTTTCCCACGTTCG
binds: [1] | [2] | [3] | [4]

B2: 1xSPS EMSA probe (dsDNA)
DNA 1: GCTACGTGGGAAAGGAGCAAACTGCGTTTCCCACGTTCGTAGTGCGGGCGTGGCT
DNA 2: AGCCACGCCCGCACTACGAACGTGGGAAACGCAGTTTGCTCCTTTCCCACGTAGC
binds: [5] | [6] | [7] | [8]
